This is an account of results in patent publication US4562175A, “Synthetic peptides” (priority 1984, dated 1985).

“Also recorded” adds a separate entry of the source. Non-standard residues stand in square brackets, D forms with d. No end group written: not given here. Nle = CCCC[C@H](N)C(=O)O

The conditions of data set [1]: storage or in a living system; believed to be caused at least partly by oxidation of methionine 27; cited from earlier work.
A short description of data set [2]: Susceptibility to oxidation / loss of biological activity (stability). The format is physicochemical.
Data set [3] concerns monolayer rat pituitary cell cultures. Briefly: GH release from monolayer rat pituitary cell cultures. The class given is cell-based. The procedure: In vitro analysis of the synthetic peptide: The synthetic Nle^27 -hpGRF was added to the medium of monolayer rat pituitary cell cultures and incubated. After incubation, the media was assayed for GH released from the pituitary cells and compared to control cultures (medium alone). The amount of GH released in response to varying doses of Nle^27 -hpGRF was compared to the GH release induced by the same concentrations of the synthetic hpGRF.

As to “hpGRF: human pancreatic tumor growth hormone-releasing factor, 44 amino acid residues, methionine at position 27”, the “loss of biological activity during storage or when introduced into a living system” value in data set [1] is “drastic loss of biological activity”. The “loss of biological activity through methionine oxidation” value in data set [2] is recorded as “drastic loss of biological activity”. Moreover, in data set [3] (L-ascorbic acid added to test medium, compared to medium without reducing agent), the “GH-releasing activity with reducing agent added to the test medium” value is “enhance the GH-releasing activity”.
Consider corticotropin-releasing factor, for which, in data set [2], the “loss of biological activity through methionine oxidation” value is listed as “Loss of biologic activity”.
For “YADAIFTNSYRKVLGQLSARKLLQDI[Nle]SRQQGQSNQERGARARL-NH2 [Nle^27 -hpGRF]”, the resistance to oxidation entry in data set [2] (norleucine at position 27 instead of methionine) is “resistant to oxidation”. Moreover, the “GH-releasing activity (GH released into medium) compared with hpGRF” value in data set [3] (varying doses, same concentrations as synthetic hpGRF, tested at the same time under identical conditions) is “significantly greater biological activity than synthetic hpGRF; also recorded: greater growth hormone-releasing activity than the natural compound; also recorded: greater GH-releasing activity than original hpGRF”.
